From paper PMC4278837, “A Cyclic Peptidic Serine Protease Inhibitor: Increasing Affinity by Increasing Peptide Flexibility” (PLoS ONE, 2014)
Bridge positions count the residues as written; N and C are the ends. Square brackets hold non-standard residues; d marks the D form. Ends that are not written are not given here. Ala(1-amidino-4-piperidyl) = N=C(N)N1CCC(C[C@H](N)C(=O)O)CC1; Phe(4-guanidino) = N=C(N)Nc1ccc(C[C@H](N)C(=O)O)cc1

B1: mupain-1 (peptide)
peptide: CPAYSRYLDC
modifications: disulfide 1-10 (inferred)
notes: Synthesised on a resin with Rink amide linker; source: synthetic peptide (solid-phase synthesis, HPLC purified)
B2: Mupain-1 D9A (peptide)
peptide: CPAYSRYLAC
modifications: disulfide 1-10 (inferred)
notes: mupain-1 with D9A; Rink amide linker resin; C-terminal amide surmised; source: synthetic peptide (solid-phase synthesis, HPLC purified)

Biological target: recombinant catalytic domain of huPA-H99Y (residues 159-411) (human, UniProt P00749 179-431)
Experiment: ITC; MicroCal ITC200; peptide injected into 5-50 µM huPA-H99Y catalytic domain; 20 mM sodium phosphate pH 7.4, 140 mM NaCl, 25°C; one-binding-site model
Conditions: both partners purified

Binder | Kd | dH | stoichiometry N
CPAYS[Ala(1-amidino-4-piperidyl)]YLDC (disulfide 1-10; not fully specified) [mupain-1-16] | 380 nM | -7.93 kcal/mol | 0.87
CPAYS[Ala(1-amidino-4-piperidyl)]YLAC (disulfide 1-10; not fully specified) [Mupain-1-16 D9A] | 134 nM | -11.1 kcal/mol | 0.88
CPAYS[Phe(4-guanidino)]YLDC (disulfide 1-10) [mupain-1-12] | 400 nM | -10.5 kcal/mol | 0.85

Biological target: T1, huPA-H99Y (full length human urokinase-type plasminogen activator with H99Y) (human)
Experiment: SPR; Biacore T200; uPA variant amine-coupled to a CM5 chip (about 500 RU); peptides injected in HBS with 0.1% BSA, 30 µL/min, 25°C, pH 7.4; 1:1 kinetic fit; KD = koff/kon
Conditions: both partners purified

Binder | Kd | koff | kon
CPAYS[Ala(1-amidino-4-piperidyl)]YLDC (disulfide 1-10; not fully specified) [mupain-1-16] | 844 nM | 0.0893 s⁻¹ | 107000 M⁻¹ s⁻¹
CPAYS[Ala(1-amidino-4-piperidyl)]YLAC (disulfide 1-10; not fully specified) [Mupain-1-16 D9A] | 71.8 nM | 0.0333 s⁻¹ | 465000 M⁻¹ s⁻¹
CPAYS[Phe(4-guanidino)]YLDC (disulfide 1-10) [mupain-1-12] | 1210 nM | 0.246 s⁻¹ | 206000 M⁻¹ s⁻¹

Biological target: T2, murine urokinase-type plasminogen activator (muPA) wild type (murine, UniProt P06869 21-433)
T2 construct: cDNA encoding full length muPA; Two-chain form after plasmin; also called muPA wt; muPA-wt; source: HEK293 6E, transfected; treated with plasmin
Experiment: as above
Conditions: both partners purified

T2 sequence (P06869 21-433): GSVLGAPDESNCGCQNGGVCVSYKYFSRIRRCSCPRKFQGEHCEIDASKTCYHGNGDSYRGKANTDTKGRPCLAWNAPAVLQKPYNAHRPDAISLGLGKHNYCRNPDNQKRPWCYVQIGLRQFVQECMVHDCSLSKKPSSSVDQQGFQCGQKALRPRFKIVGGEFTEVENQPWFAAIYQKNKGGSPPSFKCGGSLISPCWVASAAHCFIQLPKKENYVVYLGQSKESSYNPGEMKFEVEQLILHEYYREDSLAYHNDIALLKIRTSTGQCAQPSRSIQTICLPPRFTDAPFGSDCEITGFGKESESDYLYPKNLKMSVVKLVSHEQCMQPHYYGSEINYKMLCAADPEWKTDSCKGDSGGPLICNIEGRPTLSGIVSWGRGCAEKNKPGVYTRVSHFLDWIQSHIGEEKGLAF

Binder | Kd | koff | kon
CPAYS[Ala(1-amidino-4-piperidyl)]YLDC (disulfide 1-10; not fully specified) [mupain-1-16] | 89.4 nM | 0.00671 s⁻¹ | 89800 M⁻¹ s⁻¹
CPAYS[Ala(1-amidino-4-piperidyl)]YLAC (disulfide 1-10; not fully specified) [Mupain-1-16 D9A] | 21.3 nM | 0.0122 s⁻¹ | 579000 M⁻¹ s⁻¹
CPAYS[Phe(4-guanidino)]YLDC (disulfide 1-10) [mupain-1-12] | 138 nM | 0.0192 s⁻¹ | 156000 M⁻¹ s⁻¹
B1 | 398 nM | 0.0364 s⁻¹ | 91400 M⁻¹ s⁻¹
B2 | 417 nM | 0.0401 s⁻¹ | 98500 M⁻¹ s⁻¹

Biological target: T1, huPA-H99Y (full length human …)
Experiment: enzyme inhibition (steady state, chromogenic substrate S-2444); about 2 nM enzyme (purified or conditioned medium of transfected cells) pre-incubated 15 min with varied peptide in HBS (10 mM HEPES pH 7.4, 140 mM NaCl) with 0.1% BSA at 37°C; substrate about KM; fit for competitive inhibition; highest peptide concentration 400 µM
Conditions: not given

Binder | Ki
CPAYS[Ala(1-amidino-4-piperidyl)]YLAC (disulfide 1-10; not fully specified) [Mupain-1-16 D9A] | 309 nM

Biological target: huPA-H99Y-R35A (human)
Experiment: as above
Conditions: not given

Binder | Ki
CPAYS[Ala(1-amidino-4-piperidyl)]YLDC (disulfide 1-10; not fully specified) [mupain-1-16] | 2500 nM
CPAYS[Ala(1-amidino-4-piperidyl)]YLAC (disulfide 1-10; not fully specified) [Mupain-1-16 D9A] | 174 nM
CPAYS[Phe(4-guanidino)]YLDC (disulfide 1-10) [mupain-1-12] | 3260 nM

Biological target: huPA-H99Y-V41A (human)
Experiment: as above
Conditions: not given

Binder | Ki
CPAYS[Ala(1-amidino-4-piperidyl)]YLDC (disulfide 1-10; not fully specified) [mupain-1-16] | 1950 nM
CPAYS[Ala(1-amidino-4-piperidyl)]YLAC (disulfide 1-10; not fully specified) [Mupain-1-16 D9A] | 480 nM
CPAYS[Phe(4-guanidino)]YLDC (disulfide 1-10) [mupain-1-12] | 1600 nM

Biological target: huPA-H99Y-K143A (human)
Experiment: as above
Conditions: not given

Binder | Ki
CPAYS[Ala(1-amidino-4-piperidyl)]YLDC (disulfide 1-10; not fully specified) [mupain-1-16] | 1130 nM
CPAYS[Ala(1-amidino-4-piperidyl)]YLAC (disulfide 1-10; not fully specified) [Mupain-1-16 D9A] | 188 nM
CPAYS[Phe(4-guanidino)]YLDC (disulfide 1-10) [mupain-1-12] | 2140 nM

Biological target: huPA-H99Y-Q192A (human)
Experiment: as above
Conditions: not given

Binder | Ki
CPAYS[Ala(1-amidino-4-piperidyl)]YLDC (disulfide 1-10; not fully specified) [mupain-1-16] | 2710 nM
CPAYS[Ala(1-amidino-4-piperidyl)]YLAC (disulfide 1-10; not fully specified) [Mupain-1-16 D9A] | 438 nM
CPAYS[Phe(4-guanidino)]YLDC (disulfide 1-10) [mupain-1-12] | 2350 nM

Biological target: T2, murine urokinase-type plasminogen …
Experiment: as above
Conditions: not given

Binder | Ki
CPAYS[Ala(1-amidino-4-piperidyl)]YLAC (disulfide 1-10; not fully specified) [Mupain-1-16 D9A] | 76 nM

Biological target: T3, muPA-K41A (murine)
T3 construct: site directed mutant of full length muPA; numbers count on: chymotrypsin numbering; Two-chain form after plasmin; source: HEK293 6E, transfected; treated with plasmin
Experiment: as above
Conditions: not given

Binder | Ki
CPAYS[Ala(1-amidino-4-piperidyl)]YLDC (disulfide 1-10; not fully specified) [mupain-1-16] | 300 nM
CPAYS[Ala(1-amidino-4-piperidyl)]YLAC (disulfide 1-10; not fully specified) [Mupain-1-16 D9A] | 14 nM
CPAYS[Phe(4-guanidino)]YLDC (disulfide 1-10) [mupain-1-12] | 1720 nM

Biological target: T4, muPA-Y99A (murine)
T4 construct: site directed mutant of full length muPA; numbers count on: chymotrypsin numbering; Two-chain form after plasmin; source: HEK293 6E, transfected; treated with plasmin
Experiment: as above
Conditions: not given

Binder | Ki
CPAYS[Ala(1-amidino-4-piperidyl)]YLDC (disulfide 1-10; not fully specified) [mupain-1-16] | 1240 nM
CPAYS[Ala(1-amidino-4-piperidyl)]YLAC (disulfide 1-10; not fully specified) [Mupain-1-16 D9A] | 1360 nM
CPAYS[Phe(4-guanidino)]YLDC (disulfide 1-10) [mupain-1-12] | 5200 nM

Biological target: T5, muPA-K143A (murine)
T5 construct: site directed mutant of full length muPA; numbers count on: chymotrypsin numbering; Two-chain form after plasmin; source: HEK293 6E, transfected; treated with plasmin
Experiment: as above
Conditions: not given

Binder | Ki
CPAYS[Ala(1-amidino-4-piperidyl)]YLDC (disulfide 1-10; not fully specified) [mupain-1-16] | 130 nM
CPAYS[Ala(1-amidino-4-piperidyl)]YLAC (disulfide 1-10; not fully specified) [Mupain-1-16 D9A] | 100 nM
CPAYS[Phe(4-guanidino)]YLDC (disulfide 1-10) [mupain-1-12] | 1000 nM

Biological target: T6, muPA-S190A (murine)
T6 construct: site directed mutant of full length muPA; numbers count on: chymotrypsin numbering; Two-chain form after plasmin; source: HEK293 6E, transfected; treated with plasmin
Experiment: as above
Conditions: not given

Binder | Ki
CPAYS[Ala(1-amidino-4-piperidyl)]YLDC (disulfide 1-10; not fully specified) [mupain-1-16] | 352 nM
CPAYS[Ala(1-amidino-4-piperidyl)]YLAC (disulfide 1-10; not fully specified) [Mupain-1-16 D9A] | 529 nM
CPAYS[Phe(4-guanidino)]YLDC (disulfide 1-10) [mupain-1-12] | 2300 nM

Biological target: T7, muPA-V213T (murine)
T7 construct: site directed mutant of full length muPA; numbers count on: chymotrypsin numbering; Two-chain form after plasmin; source: HEK293 6E, transfected; treated with plasmin
Experiment: as above
Conditions: not given

Binder | Ki
CPAYS[Ala(1-amidino-4-piperidyl)]YLDC (disulfide 1-10; not fully specified) [mupain-1-16] | 13 nM
CPAYS[Ala(1-amidino-4-piperidyl)]YLAC (disulfide 1-10; not fully specified) [Mupain-1-16 D9A] | 14 nM
CPAYS[Phe(4-guanidino)]YLDC (disulfide 1-10) [mupain-1-12] | 86 nM
